Reference: the supplement of paper PMC7125110
± gives the standard error. For some of these results: Variants at the floor of the assay were thinned out.

B1: glmS ribozyme (parent)
chain: AUAAAAGCGCCAGAACUACAGAAAUGUAGUUGACGAGGAGGAGGUUUAUCGAAUUUUCGGCGGAUGCCUCCAAA

Columns and labels:
Conditions in all cases: with glucosamine-6-phosphate
glucosamine-6-phosphate [1] = variants of: B1; experiment: kcat; higher = faster cleavage; RNA array
Procedure, shortened: (§1)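 Weighted Michaelis–Menten fits across concentrations supplied kcat and KM, based on kobs from one- or two-exponential decay fits to normalised per-tile medians. The data came from barcoded ribozyme variants transcribed in situ by E. coli RNA polymerase on sequenced MiSeq chips and tracked at 37 °C by a hybridised Cy3 probe. Glucosamine-6-phosphate (40 μM to 10 mM) in HEPES/KCl/Mg(OAc)2 buffer was flowed in.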

glucosamine-6-phosphate [2] = variants of: B1; experiment: KM; higher = weaker cofactor use; RNA array
Procedure, shortened: as §1

glucosamine-6-phosphate [3] = variants of: B1; experiment: self-cleavage kobs at 40 uM GlcN6P; higher = faster cleavage; RNA array
Procedure, shortened: as §1

glucosamine-6-phosphate [4] = variants of: B1; experiment: self-cleavage kobs at 160 uM GlcN6P; higher = faster cleavage; RNA array
Procedure, shortened: as §1

glucosamine-6-phosphate [5] = variants of: B1; experiment: self-cleavage kobs at 640 uM GlcN6P; higher = faster cleavage; RNA array
Procedure, shortened: as §1

glucosamine-6-phosphate [6] = variants of: B1; experiment: self-cleavage kobs at 2500 uM GlcN6P; higher = faster cleavage; RNA array
Procedure, shortened: as §1

glucosamine-6-phosphate [7] = variants of: B1; experiment: self-cleavage kobs at 10000 uM GlcN6P; higher = faster cleavage; RNA array
Procedure, shortened: as §1

Row | Variant | kcat (glucosamine-6-phosphate [1]) | KM (glucosamine-6-phosphate [2]) | self-cleavage kobs at 40 uM GlcN6P (glucosamine-6-phosphate [3]) | self-cleavage kobs at 160 uM GlcN6P (glucosamine-6-phosphate [4]) | self-cleavage kobs at 640 uM GlcN6P (glucosamine-6-phosphate [5]) | self-cleavage kobs at 2500 uM GlcN6P (glucosamine-6-phosphate [6]) | self-cleavage kobs at 10000 uM GlcN6P (glucosamine-6-phosphate [7])
1 | U31G | 0.0277 ± 0.0077 s⁻¹ | 3.08 ± 1 mM | 0.000403 ± 7.4e-06 s⁻¹ | 0.00114 ± 4.7e-05 s⁻¹ | 0.00394 ± 0.00013 s⁻¹ | 0.0126 ± 0.00057 s⁻¹ | 0.0227 ± 0.00081 s⁻¹
2 | G32A U69G | 6.22e-05 ± 1.2e-05 s⁻¹ |  | 3.77e-05 ± 1.4e-05 s⁻¹ |  | 0.000117 ± 1.8e-05 s⁻¹ | 5.99e-05 ± 9.1e-06 s⁻¹ | 5.26e-05 ± 8.5e-06 s⁻¹
3 | A36C G66U | < 1e-05 s⁻¹ |  |  |  |  |  | 
4 | G35U C70U | < 1e-05 s⁻¹ |  |  | < 1e-05 s⁻¹ | < 1e-05 s⁻¹ |  | < 1e-05 s⁻¹
5 | G32U U55G U56A | 0.000802 ± 4.9e-05 s⁻¹ | 5.53 ± 0.45 mM |  |  | 8.29e-05 ± 1.1e-05 s⁻¹ | 0.000255 ± 4.3e-05 s⁻¹ | 0.000509 ± 0.00011 s⁻¹
6 | U31G U47G A48G | 1.96e-05 ± 7.2e-06 s⁻¹ |  |  |  |  |  | 
7 | A36U U45A C50G | < 1e-05 s⁻¹ |  |  |  | < 1e-05 s⁻¹ | < 1e-05 s⁻¹ | 
8 | U31C G63U | < 1e-05 s⁻¹ |  |  |  |  | < 1e-05 s⁻¹ | 
9 | A33U C68U | 1.75e-05 ± 1.6e-06 s⁻¹ |  | < 1e-05 s⁻¹ |  |  |  | 
10 | G32A C70G | 0.000111 ± 1.6e-05 s⁻¹ |  |  | 2.97e-05 ± 1.1e-05 s⁻¹ | 9.43e-05 ± 1.5e-05 s⁻¹ | 6.07e-05 ± 2.4e-05 s⁻¹ | 0.00011 ± 1.3e-05 s⁻¹
11 | A33G C67U | 2.01e-05 ± 2.6e-06 s⁻¹ | 1.35 ± 0.42 mM |  |  |  |  | 
12 | A33G C67A | < 1e-05 s⁻¹ |  | < 1e-05 s⁻¹ |  |  |  | < 1e-05 s⁻¹
13 | A33G C67G | 1.67e-05 ± 4.8e-06 s⁻¹ |  |  |  |  |  | 
14 | G32U U54C | 0.000958 ± 0.00028 s⁻¹ | 5.3 ± 2.3 mM |  |  | 0.000126 ± 1.5e-05 s⁻¹ | 0.000272 ± 3.3e-05 s⁻¹ | 0.000665 ± 8.6e-05 s⁻¹
15 | A36U C50G U69G | 0.000296 ± 5.6e-05 s⁻¹ |  | 0.000397 ± 0.00012 s⁻¹ | 0.000219 ± 6e-05 s⁻¹ | 0.00036 ± 0.00012 s⁻¹ | 0.000275 ± 0.00013 s⁻¹ | 0.000368 ± 8.1e-05 s⁻¹
16 | A33U U54A C70A | 4.75e-05 ± 1.3e-05 s⁻¹ |  |  |  | 5.86e-05 ± 2e-05 s⁻¹ |  | 
17 | G32A U55A | 0.00351 ± 0.00053 s⁻¹ | 3.54 ± 0.69 mM | 5.08e-05 ± 9.5e-06 s⁻¹ | 0.00014 ± 1.7e-05 s⁻¹ | 0.000541 ± 5.3e-05 s⁻¹ | 0.00144 ± 0.00022 s⁻¹ | 0.00261 ± 0.00038 s⁻¹
18 | A33G U65A C70G | 4e-05 ± 6.6e-06 s⁻¹ | 0.627 ± 0.31 mM | < 1e-05 s⁻¹ |  |  |  | 
19 | A33U C71A | 4.74e-05 ± 6.5e-07 s⁻¹ | 0.919 ± 0.065 mM | < 1e-05 s⁻¹ |  |  | 3.52e-05 ± 8.5e-06 s⁻¹ | 4.32e-05 ± 6.2e-06 s⁻¹
20 | G32A G40C A48U | < 1e-05 s⁻¹ |  | < 1e-05 s⁻¹ |  |  |  | 
21 | G32A G38U G59A U65A C70G | 1.63e-05 ± 2.9e-06 s⁻¹ |  |  |  |  |  | 

Row | Variant | kcat (glucosamine-6-phosphate [1]) | KM (glucosamine-6-phosphate [2]) | self-cleavage kobs at 40 uM GlcN6P (glucosamine-6-phosphate [3]) | self-cleavage kobs at 160 uM GlcN6P (glucosamine-6-phosphate [4]) | self-cleavage kobs at 640 uM GlcN6P (glucosamine-6-phosphate [5]) | self-cleavage kobs at 2500 uM GlcN6P (glucosamine-6-phosphate [6]) | self-cleavage kobs at 10000 uM GlcN6P (glucosamine-6-phosphate [7])
22 | A36G C67A | < 1e-05 s⁻¹ |  |  |  |  |  | 
23 | G32A C58G | 0.000211 ± 4.8e-05 s⁻¹ | 6.46 ± 3.2 mM |  |  |  | 5.76e-05 ± 1.7e-05 s⁻¹ | 0.000129 ± 1.7e-05 s⁻¹
24 | U31C U65C | 5e-05 ± 2.5e-06 s⁻¹ | 0.238 ± 0.12 mM |  |  | 3.88e-05 ± 1.4e-05 s⁻¹ | 4.75e-05 ± 9.5e-06 s⁻¹ | 4.78e-05 ± 6.9e-06 s⁻¹
25 | G32U G40A | 0.000344 ± 5e-05 s⁻¹ | 3.45 ± 0.95 mM |  |  | 6.33e-05 ± 6.7e-06 s⁻¹ | 0.000131 ± 1e-05 s⁻¹ | 0.000267 ± 1.9e-05 s⁻¹
26 | C34A G38U | < 1e-05 s⁻¹ |  |  |  | < 1e-05 s⁻¹ |  | 
27 | G37A A52G | 0.000162 ± 8.6e-06 s⁻¹ | 3.42 ± 0.44 mM |  |  |  | 6.77e-05 ± 1.2e-05 s⁻¹ | 0.000121 ± 1.5e-05 s⁻¹
28 | U31G C71U | 0.0144 ± 0.0067 s⁻¹ |  | 0.000277 ± 3.1e-05 s⁻¹ | 0.000479 ± 8.2e-05 s⁻¹ | 0.00235 ± 0.00045 s⁻¹ | 0.00836 ± 0.0019 s⁻¹ | 0.0107 ± 0.0016 s⁻¹
29 | A33C C70U | 1.19e-05 ± 4.5e-06 s⁻¹ |  |  |  |  |  | 
30 | G32C C58A | 0.000602 ± 8.9e-05 s⁻¹ | 8.22 ± 1.7 mM |  |  | 4.35e-05 ± 8.2e-06 s⁻¹ | 0.000139 ± 1.7e-05 s⁻¹ | 0.000333 ± 4.8e-05 s⁻¹
31 | G32C C58U | 3.33e-05 ± 5.5e-06 s⁻¹ |  |  |  |  |  | 
32 | G32U A53U | 0.000907 ± 0.00012 s⁻¹ | 4.58 ± 0.95 mM |  | 1.91e-05 ± 5.9e-06 s⁻¹ | 0.000111 ± 6.5e-06 s⁻¹ | 0.000361 ± 2.5e-05 s⁻¹ | 0.000603 ± 3.5e-05 s⁻¹
33 | G32U A53C | 0.000282 ± 0.00012 s⁻¹ |  |  |  | 0.000104 ± 2.3e-05 s⁻¹ | 0.000105 ± 2.7e-05 s⁻¹ | 0.000275 ± 4.6e-05 s⁻¹
34 | G32U A53G | 0.00107 ± 0.00015 s⁻¹ | 3.39 ± 0.75 mM |  | 5.42e-05 ± 9e-06 s⁻¹ | 0.000174 ± 1.8e-05 s⁻¹ | 0.000375 ± 5.5e-05 s⁻¹ | 0.000847 ± 7.5e-05 s⁻¹
35 | G32A C68G | 3.18e-05 ± 4.2e-06 s⁻¹ |  |  |  |  | 3.93e-05 ± 1.4e-05 s⁻¹ | 2.81e-05 ± 9.3e-06 s⁻¹
36 | G32C G43U | < 1e-05 s⁻¹ |  | < 1e-05 s⁻¹ | < 1e-05 s⁻¹ | < 1e-05 s⁻¹ |  | < 1e-05 s⁻¹
37 | A36U U54A | < 1e-05 s⁻¹ |  |  |  |  |  | 
38 | G32C C71A | 1.79e-05 ± 3.7e-06 s⁻¹ |  |  |  |  |  | 
39 | A33U G66C | 1.44e-05 ± 2.1e-06 s⁻¹ | 3.04 ± 1.5 mM |  |  |  |  | 
40 | A33U G66A | 6.76e-05 ± 1.2e-06 s⁻¹ | 2.79 ± 0.18 mM |  |  |  | 3.2e-05 ± 1e-05 s⁻¹ | 5.28e-05 ± 6.4e-06 s⁻¹
41 | G32A U49A U54G G59A C67U | 1.76e-05 ± 5.6e-06 s⁻¹ |  |  |  |  |  | 
